Data taken from patent US20220112288A1 (published 2022).
Numbering of substitutions follows the chain as printed.

B1: 75110_02E08A (antibody, V domains shown)
VH: QVQLQESGPGLVKPSETLSLTCTVSGGSISTYYWTWIRQPAGKGLEWIGRVYTSGDTNYNPSLKSRVAMSLDTSKNQFSLKLSSVTAADTAVYYCARDSGALYSWNYGDAFDIWGQGTMVTVSS
VL: DIQMTQSPSAMSASVGDRVTITCRASQDISNYLAWFQQKPGKVPKRLIYAASSLQSGVPSRFSGSGSGTEFTLTISSLQPEDFATYYCLQHNSYPRTFGQGTKVEIK
notes: Tested here as non-clonal hybridoma supernatant from AlivaMab Mouse Kappa mice (detected with anti-mouse Fc and anti-human kappa)
B2: 75110_03C01A (antibody, V domains shown)
VH: QVQLQQWGAGLLKPSETLSLTCAVYGGSFSGYYWSWIRQSPGKGLEWIGEINQSGSTNYNPSLKSRVTISVDTSKDQFSLKLSSVTAADTAVYYCARVINWFDSWGQGSLVTVSS
VL: DIQMTQSPSSVSASVGDRVTITCRASQGISSWLAWYQQKPGNAPKLLIYDASSFQSGVPSRFSGSGSGTDFTLTISSLQTEDFATYYCQQANSFPYTFGQGTKLEIK
notes: as for B1
B3: 75110_04P08A (antibody, V domains shown)
VH: B2 VH with F29L, K81R, S83T, A96T, I99L, S104P, Q107R, S109T
VL: B2 VL with I21L, G28D, S31N, N42K, D50A, F54L
notes: as for B1
B4: 75110_03L12A (antibody, V domains shown)
VH: B2 VH with S40P, Q53H, K75E, D76N, K81T, S83I, A96V, V98L, S104P, S109T
VL: B2 VL with G28D, S31N, N42K, Y49F, D50A, F54L, T80P, E81D, K103N, E105G
notes: as for B1
B5: 75110_05B13A (antibody, V domains shown)
VH: QVLLEQWGAGLLKPSETLSLTCAVYGGSFSGYYWTWIRQPPGKGLEWIGEINHRGSTNYNPSLKSRVTISIDTSKNQFSLKVKSVTAADTAMYYCTRPDSNWFDPWGQGTLVTVSS
VL: B2 VL with G28D, S31N, N42K, Y49F, D50A, F54L, T80P, Y96L, Q100G, L104V
notes: as for B1
B6: 75110_04G16A (antibody, V domains shown)
VH: QVQLQESGPGLVKPSQTLSLTCTVSGDSISSGYYYWSWIRQHPGKGLEWIGYISYSGSTYYNPSLKSRLTISVNTSKNQFSLKLSSLTAADTAVYYCARDRPSNFDAFDIWGQGTMVTVSS
VL: EIVLTQSPGTLSLSPGERATLSCRASQSVGSTYLAWYQQKPGQAPRLLIYGAFSRATGIPDRFSGSGSGTDFTLTISRLEPEDFAVYYCQQYGSSPLTFGPGTKVDIK
notes: Tested as non-clonal AlivaMab Mouse hybridoma supernatant (chimeric: human variable regions and human kappa, mouse Fc, captured by anti-mouse IgG Fc sensors); also called ADS75110 non-clonal supernatant 04G16A
B7: 75110_08H11A (antibody, V domains shown)
VH: EVQLVESGGGLVQPGGSLRLSCAASGFTFSSYDMHWVRQATGKGLEWVSTIGTAGDTYYPGSVKGRFTISRENAKNSLYLQMNSLRAGDTAVYYCARGGYSYYGMDVWGQGTTVTVSS
VL: B6 VL with R24G, G30S, F53S, Y92F, L97F
notes: Tested as non-clonal AlivaMab Mouse hybridoma supernatant (human variable regions and human kappa, mouse Fc); also called ADS75110 non-clonal supernatant 08H11A
B8: 75110_01G11A (antibody, V domains shown)
VH: B7 VH with K75R, Y79F, Y100D, S101Y
VL: B6 VL with S14F, S28N, V29T, G30Y, T32S, F53S, S54N, Y92H, S94T, L97F
notes: Tested as non-clonal AlivaMab Mouse hybridoma supernatant (human variable regions and human kappa, mouse Fc); also called ADS75110 non-clonal supernatant 01G11A
B9: 75110_05K11A (antibody, V domains shown)
VH: B7 VH with A40P, G61A, Y100F, S101Y
VL: B6 VL with A19V, G30S, S31N, F53S, A85V, Y92H, L97F
notes: Tested as non-clonal AlivaMab Mouse hybridoma supernatant (human variable regions and human kappa, mouse Fc); also called ADS75110 non-clonal supernatant 05K11A
B10: 75110_04P06A (antibody, V domains shown)
VH: B7 VH with S31N, Y100D, S101Y
VL: B6 VL with G9D, V29L, G30S, T32V, F53S, S77N, A85V, L97F
notes: Tested as non-clonal AlivaMab Mouse hybridoma supernatant (human variable regions and human kappa, mouse Fc); also called ADS75110 non-clonal supernatant 04P06A
B11: 75110_01J17A (antibody, V domains shown)
VH: B7 VH with A40G, G55D, K75E, Y100D, S101Y
VL: B6 VL with T5A, G30Y, S31I, T32S, F53S, S77T, Y92F, L97F, I107F
notes: Tested as non-clonal AlivaMab Mouse hybridoma supernatant (human variable regions and human kappa, mouse Fc); also called ADS75110 non-clonal supernatant 01J17A
B12: 75110_07E04A (antibody, V domains shown)
VH: B7 VH with A24V, N76K, S77F, S101Y
VL: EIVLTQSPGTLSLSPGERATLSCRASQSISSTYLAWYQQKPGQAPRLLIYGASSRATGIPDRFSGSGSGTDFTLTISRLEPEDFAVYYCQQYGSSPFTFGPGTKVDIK
notes: Tested as non-clonal AlivaMab Mouse hybridoma supernatant (human variable regions and human kappa, mouse Fc); also called ADS75110 non-clonal supernatant 07E04A
B13: 75110_13C07A (antibody, V domains shown)
VH: B7 VH with G10V, S31N, I69L, N83H, G99A, S101G
VL: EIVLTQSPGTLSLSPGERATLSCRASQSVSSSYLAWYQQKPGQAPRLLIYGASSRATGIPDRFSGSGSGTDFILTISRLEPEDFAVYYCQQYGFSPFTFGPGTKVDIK
notes: Tested as non-clonal AlivaMab Mouse hybridoma supernatant (human variable regions and human kappa, mouse Fc); also called ADS75110 non-clonal supernatant 13C07A
B14: 75110_08H06A (antibody, V domains shown)
VH: B7 VH with S31N, S101D
VL: B6 VL with V29I, G30T, T32I, Q38R, F53S, L97F
notes: Tested as non-clonal AlivaMab Mouse hybridoma supernatant (human variable regions and human kappa, mouse Fc); also called ADS75110 non-clonal supernatant 08H06A
B15: 75110_10N21A (antibody, V domains shown)
VH: B7 VH with A40V, S101Y
VL: B6 VL with V29F, G30I, T32S, F53S, E80D, Y92S, S94N, L97F, I107V
notes: Tested as non-clonal AlivaMab Mouse hybridoma supernatant (human variable regions and human kappa, mouse Fc); also called ADS75110 non-clonal supernatant 10N21A
B16: 75110_01K10A (antibody, V domains shown)
VH: B7 VH with G10A, S30R, S31N, Y100D, S101Y
VL: B6 VL with G9D, V29L, G30S, T32V, F53S, S66T, L97F
notes: Tested as non-clonal AlivaMab Mouse hybridoma supernatant (human variable regions and human kappa, mouse Fc); also called ADS75110 non-clonal supernatant 01K10A
B17: 75110_04F22A (antibody, V domains shown)
VH: B7 VH with M34I, S101Y
VL: B6 VL with G30Y, T32S, F53S, Y92F, S94T, L97F
notes: Tested as non-clonal AlivaMab Mouse hybridoma supernatant (human variable regions and human kappa, mouse Fc); also called ADS75110 non-clonal supernatant 04F22A
B18: 75110_14H13A (antibody, V domains shown)
VH: B7 VH with S31N, E72K, N83I, Y100D, S101Y
VL: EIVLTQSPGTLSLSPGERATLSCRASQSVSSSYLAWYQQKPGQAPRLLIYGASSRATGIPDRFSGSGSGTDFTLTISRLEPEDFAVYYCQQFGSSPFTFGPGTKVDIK
notes: Tested as non-clonal AlivaMab Mouse hybridoma supernatant (human variable regions and human kappa, mouse Fc); also called ADS75110 non-clonal supernatant 14H13A
B19: 75110_01N04A (antibody, V domains shown)
VH: B7 VH with S31N, Y100D, S101F, M105L
VL: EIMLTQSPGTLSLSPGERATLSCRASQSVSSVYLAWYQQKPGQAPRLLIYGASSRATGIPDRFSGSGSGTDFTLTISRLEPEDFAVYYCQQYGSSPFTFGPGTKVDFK
notes: Tested as non-clonal AlivaMab Mouse hybridoma supernatant (human variable regions and human kappa, mouse Fc); also called ADS75110 non-clonal supernatant 01N04A

Target: T1, human CD4 on the surface of SKW3 cells or human PBMCs (human, UniProt P01730 26-458)
T1 construct: whole, on cells; SKW3 CD4 knockout cells served as the negative cell line; also called hCD4; SKW3 WT
Assay: FACS confirmation, supernatant on human PBMCs, anti-mouse Fc A647

Row | Binder | PBMCs, anti-mFc 647 CD4+ Percent Bound of Viable [%]
1 | B1 | 31
2 | B2 | 28
3 | B3 | 28
4 | B4 | 28
5 | B5 | 27

Target: T1, human CD4 on the surface of SKW3 cells …
Assay: FACS confirmation, supernatant on human PBMCs, anti-mouse Fc A647, CD4+ gate

Row | Binder | PBMCs, anti-mFc 647 CD4+ gate - RL1 Binding
6 | B1 | 317000
7 | B2 | 266000
8 | B3 | 260000
9 | B4 | 229000
10 | B5 | 228000

Target: T2, Recombinant human CD4 (R&D Systems, Cat. 10327-CD) (human, UniProt P01730 26-390, limits assumed)
T2 construct: Bought protein; also called huCD4
Assay: BLI (Octet Red 384), non-clonal supernatant captured on AMC sensors, 100 nM human CD4

Row | Binder | Response
11 | B6 | 0.15
12 | B7 | 0.08
13 | B8 | 0.04
14 | B9 | 0.05
15 | B10 | 0.06
16 | B11 | 0.06
17 | B12 | 0.01
18 | B13 | 0.0171
19 | B14 | 0.06
20 | B15 | 0.0658
21 | B16 | 0.03
22 | B17 | 0.05
23 | B18 | 0.14
24 | B19 | 0.06

Target: T1, human CD4 on the surface of SKW3 cells …
Assay: FACS confirmation, supernatant on SKW3 WT cells, anti-mouse Fc A647; background gMFI 3300

Row | Binder | SKW3 WT anti-mFc 647, gMFI [gMFI]
25 | B1 | 30900
26 | B2 | 18700
27 | B3 | 25300
28 | B4 | 27300
29 | B5 | 26000

Target: T1, human CD4 on the surface of SKW3 cells …
Assay: FACS confirmation, supernatant on SKW3 WT cells, anti-human kappa FITC; background gMFI 2500

Row | Binder | SKW3 WT anti-hu Kappa FITC, gMFI [gMFI]
30 | B1 | 7260
31 | B2 | 5920
32 | B3 | 7420
33 | B4 | 8010
34 | B5 | 7310

Target: T1, human CD4 on the surface of SKW3 cells …
Assay: FACS primary screen, non-clonal hybridoma supernatant, SKW3 vs SKW3 CD4 KO cells, anti-mouse Fc A647

Row | Binder | SKW3 WT vs KO anti-mFc-647 [ratio]
35 | B1 | 8.4
36 | B2 | 8
37 | B3 | 8.4
38 | B4 | 4.2
39 | B5 | 3.1

Target: T2, Recombinant human CD4 (R&D Systems, …)
Assay: BLI (Octet Red 384), non-clonal supernatant captured on AMC sensors, 100 nM human CD4, 1:1 local fit;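 note: hybridoma antibodies from supernatants, one CD4 concentration giving single-point kinetics per supernatant, with curves fitted over both association and dissociation phases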

Row | Binder | Kd [nM] | koff [s⁻¹] | kon [M⁻¹ s⁻¹]
40 | B6 | 0.95 | 7.1e-05 | 74000
41 | B7 | 2.9 | 0.00065 | 230000
42 | B8 | 5.3 | 0.00025 | 47000
43 | B9 | < 0.001 | < 1e-07 | 12000
44 | B10 | < 0.001 | < 1e-07 | 12000
45 | B11 | < 0.001 | < 1e-07 | 37000
46 | B12 | 11000 | 0.013 | 1200
47 | B13 | 84 | 0.0182 | 217000
48 | B14 | < 0.001 | < 1e-07 | 120000
49 | B15 | 0.873 | 0.000133 | 152000
50 | B16 | 340 | 0.00042 | 1200
51 | B17 | < 0.001 | < 1e-07 | 15000
52 | B18 | < 0.001 | < 1e-07 | 100000
53 | B19 | 2.2 | 4.8e-05 | 22000

Target: T1, human CD4 on the surface of SKW3 cells …
Assay: FACS primary screen, non-clonal hybridoma supernatant, SKW3 vs SKW3 CD4 KO cells, anti-human kappa FITC

Row | Binder | SKW3 WT vs KO anti-hKappa-FITC [ratio]
54 | B1 | 3.1
55 | B2 | 2.4
56 | B3 | 3
57 | B4 | 2.5
58 | B5 | 2.4

Target: T1, human CD4 on the surface of SKW3 cells …
Assay: FACS binning on SKW3 cells; competitor OKT4-Alexa Fluor 488 (its signal read); background 2163, max binding 8200

Row | Binder | OKT4 A488 signal
59 | B1 | 3320
60 | B2 | 9510
61 | B3 | 9760
62 | B4 | 9750
63 | B5 | 9670

Target: T1, human CD4 on the surface of SKW3 cells …
Assay: FACS binning on SKW3 cells; competitor RPA-T4-PE-Dazzle 594 (its signal read); background 783, max binding 15000

Row | Binder | RPA-T4-PE-Dazzle 594 signal
64 | B1 | 13500
65 | B2 | 19200
66 | B3 | 19900
67 | B4 | 20700
68 | B5 | 20300

Target: T3, huCD4-HIS (human, UniProt P01730 26-390, limits assumed)
T3 construct: not shown: HIS tag
Assay: ELISA binning; competitor ibalizumab; 100 ng/mL huCD4-HIS, anti-HIS HRP detection; background 45, max binding 3000000

Row | Binder | Ibalizumab ELISA binning signal
69 | B1 | 335000
70 | B2 | 865000
71 | B3 | 1.57e+06
72 | B4 | 885000
73 | B5 | 1.03e+06

Target: T1, human CD4 on the surface of SKW3 cells …
Assay: FACS binning on SKW3 cells; competitor OKT4a, anti-human A647 secondary (its signal read); background 5000, max binding 35000

Row | Binder | OKT4a anti-hu A647 Secondary signal
74 | B1 | 41500
75 | B2 | 6980
76 | B3 | 6060
77 | B4 | 5720
78 | B5 | 5340
